The target of this test is His-GST-TRP (without signal peptide) (Verticillium dahliae strain V991). The experiment in a line: MST.

The Kd is the free concentration of one partner at which half of the binding sites on the other are occupied at equilibrium, for simple one-to-one binding. Low values mean higher affinity, high ones lower affinity. “GST-CTL1 (without signal peptide) (natural protein)”: the Kd came out at 1.79 µM. That is a single-digit micromolar value.

These data come from paper PMC11584738.
